Ends that are not written are not given here.

From patent US20120065133A1 (University of Pennsylvania, published 2012) come the findings set out here.

The data set concerns the molecule itself. Briefly: analytical ultracentrifugation; self-association of the peptide.

B1: Construct 12 (AP6) (peptide)
peptide: CGGGEIWKQHEEALKKLFAFHFILPFIIMAIAMVHLLFLFGEGL
modifications: also: acetylated (position not given here)
notes: Designed amphiphilic helical peptide made by solid-phase synthesis; Heme cofactors may have been present; also called amphiphilic construct AP6
In the case of B1, the binding result is reported as “binds”.
